Measurements as given in patent US20180250415A1 (Scripps Research, published 2018).

T1: CD138 (human, UniProt P18827 23-310)
T1 construct: whole, on cells; also called CD138 on H929 and U266 cells
T1 sequence (looked up): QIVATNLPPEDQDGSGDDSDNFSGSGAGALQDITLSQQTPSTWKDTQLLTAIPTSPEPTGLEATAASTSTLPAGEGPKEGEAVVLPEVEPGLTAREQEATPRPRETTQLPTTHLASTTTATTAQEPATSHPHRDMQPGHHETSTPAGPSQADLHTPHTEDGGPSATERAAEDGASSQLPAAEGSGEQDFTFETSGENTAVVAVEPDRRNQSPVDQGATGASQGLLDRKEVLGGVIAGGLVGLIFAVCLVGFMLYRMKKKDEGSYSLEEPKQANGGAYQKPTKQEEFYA

T2: CD79b (UniProt P40259 29-229, limits assumed)
T2 construct: whole, on cells; also called CD79b on Ramos cells
T2 sequence (looked up): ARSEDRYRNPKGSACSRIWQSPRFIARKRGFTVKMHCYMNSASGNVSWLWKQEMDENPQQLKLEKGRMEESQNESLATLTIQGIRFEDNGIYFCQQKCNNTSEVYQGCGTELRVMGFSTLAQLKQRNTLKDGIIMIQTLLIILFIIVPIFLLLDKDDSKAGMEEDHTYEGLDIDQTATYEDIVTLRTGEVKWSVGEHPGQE


Columns and labels:
CD138 = molecular target: T1, CD138; experiment: flow cytometry on H929 and U266 (CD138+) cells, detected with 647-conjugated F(ab')2 donkey anti-human Fc [CONT.]
Experimental: (§1) The binding activities of these DVDs are also tested against target expressing cells. […] The cells are washed with 200 μL flow cytometry buffer (PBS, 2% (w/v) FBS, pH 7.4), are incubated with DVD1 or DVD2 for 30 min on ice, are washed with 200 μL flow cytometry buffer, and are stained with 647 conjugated polyclonal (Fab′)₂ donkey anti-human Fc (Jackson ImmunoResearch Laboratories) for 20 min on ice. After washing twice with 200 μL ice-cold flow cytometry buffer, the cells are analyzed using a Canto II Flow Cytometer (Becton-Dickinson). Data were analyzed using FlowJo software (Tree Star).

HER2 = molecular target: T3, HER2 (human, UniProt P04626 23-1255); experiment: flow cytometry on SK-BR-3 (SKBR3, HER2+) cells, detected with 647-conjugated F(ab')2 donkey anti-human Fc
T3 construct: whole, on cells; also called ERBB2; HER2 on SK-BR-3 (SKBR3) cells
Experimental: as §1

CD79b = molecular target: T2, CD79b; experiment: flow cytometry on Ramos (CD79b+) cells, detected with 647-conjugated F(ab')2 donkey anti-human Fc [CONT.]
Experimental: as §1

binding result (CD138)	binding result (HER2)	binding result (CD79b)	Binder
binds	–	–	CD138-h38C2-DVD1 immunoglobulin (antibody, human IgG1, kappa, also called CD138 DVD; anti-CD138 DVD1) light: DIQMTQSTSSLSASLGDRVTISCSASQGINNYLNWYQQKPDGTVELLIYYTSTLQSGVPSRFSGSGSGTDYSLTISNLEPEDIGTYYCQQYSKLPRTFGGGTKLEIKASTKGPELQMTQSPSSLSASVGDRVTITCRSSQSLLHTYGSPYLNWYLQKPGQSPKLLIYKVSNRFSGVPSRFSGSGSGTDFTLTISSLQPEDFAVYFCSQGTHLPYTFGGGTKVEIKRTVAAPSVFIFPPSDEQLKSGTASVVCLLNNFYPREAKVQWKVDNALQSGNSQESVTEQDSKDSTYSLSSTLTLSKADYEKHKVYACEVTHQGLSSPVTKSFNRGEC heavy: not shown
no binding	no binding	no binding	h38C2 IgG1 (antibody, V domains shown, also called parent h38C2 IgG1; unconjugated humanized 38C2 antibody) VH: EVQLVESGGGLVQPGGSLRLSCAASGFTFSNYWMSWVRQSPEKGLEWVSEIRLRSDNYATHYAESVKGRFTISRDNSKNTLYLQMNSLRAEDTGIYYCKTYFYSFSYWGQGTLVTVSS VL: ELQMTQSPSSLSASVGDRVTITCRSSQSLLHTYGSPYLNWYLQKPGQSPKLLIYKVSNRFSGVPSRFSGSGSGTDFTLTISSLQPEDFAVYFCSQGTHLPYTFGGGTKVEIK
